Measurements reported in the supplement of paper PMC12764529.
± gives the half width of the 95% confidence interval.

Key:
[1] = folding stability dG unfold from chymotrypsin proteolysis; higher = more stable
Summary of the method: (§1)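 Unfolding free energy was derived, per protease or combined, by relating Bayesian-fitted K50 values from sequencing counts to a sequence-predicted unfolded-state K50 and a shared folded-state K50. The underlying digests exposed cysteine-free mini-proteins under 80 residues, in a PA-tagged cDNA display construct, to trypsin and chymotrypsin at 11 threefold-diluted concentrations and to a no-protease condition. A filter kept only designs with AlphaFold2 dimer inter-PAE above 15.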

[2] = folding stability dG unfold (combined trypsin and chymotrypsin); higher = more stable
Summary of the method: as §1

[3] = folding stability dG unfold from trypsin proteolysis; higher = more stable
Summary of the method: as §1

Sequence | folding stability dG unfold [1] | folding stability dG unfold [2] | folding stability dG unfold [3]
SAGGSATLKEIAKEIEKTVKPKYAKKLAKTIEEAVKKGYEIKKIIIEKPKDDSFKATIYLKKPNDPSAGGSA [r15_613_TrMRF] | 0.294 ± 0.45 kcal/mol | 0.66 ± 0.27 kcal/mol | 0.676 ± 0.14 kcal/mol
SAGGSATLPEKILEELAAAGYPLEYVTITEVKTEERPGSVVVTVKVEYKVPNSDRIETVNLTVPRPSAGGSA [r15_863_JUSTAS] | 1.68 ± 0.029 kcal/mol | 1.73 ± 0.036 kcal/mol | 1.71 ± 0.032 kcal/mol
SAGGSATLTLEAEFRLEDGTTVRVRVEVSPDGTVRIEVEVLPAPPPPPKVEVKEVFTTADGRKVLLSAGGSA [r2_78_TrROS_Hall] | 1.62 ± 0.063 kcal/mol | 1.57 ± 0.1 kcal/mol | 1.2 ± 0.035 kcal/mol
SAGGSATPKDPDGKEWKPIAVIDIEEMRPETLKELLEENKGPIWIHPPGEGKPFWIPADEIEDMIDSAGGSA [r15_904_TrROS] | -0.129 ± 0.2 kcal/mol | 0.336 ± 0.21 kcal/mol | 0.668 ± 0.054 kcal/mol
SAGGSATQVVLKITIKINKGEKEETREIVLPATDPEEAIAKVKKELKEKGIDAEIEELEILPVDLLSAGGSA [r15_165_JUSTAS] | 0.919 ± 0.059 kcal/mol | 1.27 ± 0.15 kcal/mol | 1.31 ± 0.089 kcal/mol
SAGGSAVERLRELLKELGVEVTVERKDGKVYIRVEASPEKREKLAEALRELFGKDIEIEVLEEGEEPSAGGS [r16_514_TrROS_Hall] | 3.17 ± 0.073 kcal/mol | 3.49 ± 0.08 kcal/mol | 3.86 ± 0.18 kcal/mol
SAGGSAVIEFELELRTRPDGSVEEEEIIAEARELIEAIPEAENAEILEIRREAFPDGTVRYHVRVRVPSAGG [r13_462_TrMRF] | 3.01 ± 0.036 kcal/mol | 3.19 ± 0.072 kcal/mol | 3.46 ± 0.072 kcal/mol
SAGGSAVKIDPKTKVIEVKNPETGETYRISLPDVPPEDGVEVEVGDDKIIIKTPKGTKEIPIDKAKSAGGSA [r15_864_TrMRF] | 0.794 ± 0.18 kcal/mol | 0.529 ± 0.25 kcal/mol | -0.000856 ± 0.16 kcal/mol
SAGGSAVPAEAKKKVFLKPVKVNIPLPGNYEIVEIDPKTGKIVIKVPGSSKTLVVDLKSGKVYEFGSAGGSA [r15_452_TrMRF] | 1.78 ± 0.085 kcal/mol | 1.51 ± 0.14 kcal/mol | 1.19 ± 0.061 kcal/mol
SAGGSAVSISTVTSTSFPGSGTSVKTYETPDFTVTVTTTRDPNGADTVEIHTDDPEAEKTVREYLASAGGSA [r15_42_JUSTAS] | -0.348 ± 0.28 kcal/mol | 0.337 ± 0.14 kcal/mol | 0.601 ± 0.049 kcal/mol
SAGGSAVVVTTDPNGTLTVYADNKVVKVKVIPLPRPDPLTGSTSTLLLVEVEVSPLKPDPLPPEFPSAGGSA [r15_515_TrMRF] | 2.65 ± 0.12 kcal/mol | 2.44 ± 0.2 kcal/mol | 2.21 ± 0.2 kcal/mol
SAGGSAYGYFYEYKIRFNGQDLSIALPAGDMEKLKDLPGVEIEPRRPEEPPPPPKEEERDPDGKKKSAGGSA [r15_443_TrROS] | 2.98 ± 0.071 kcal/mol | 2.8 ± 0.24 kcal/mol | 2.3 ± 0.18 kcal/mol
SAGGSDEHEYKGTGRDPDNGQTREETYRVEPVVPPIPISISVSLNLDIDPNGNLNWDFNISIGIGISAGGSA [r2_326_TrROS] | 3.81 ± 0.33 kcal/mol | 3.33 ± 0.37 kcal/mol | 2.78 ± 0.2 kcal/mol
SAGGSDGEMITYPFLLPDGYLITIWISPENGQITEIEIMPIPAPPPEPPVEPKYGRDDGNGNKKYDSAGGSA [r2_78_TrROS] | 1.72 ± 0.088 kcal/mol | 1.52 ± 0.16 kcal/mol | 1.14 ± 0.047 kcal/mol
SAGGSDLKVQVNKDGNTIRIQLPDGKPIFEIPFYRYDPDDGKPLEPWTIRMRLDPDGNIKIEEITPSAGGSA [r2_362_TrROS] | 1.45 ± 0.14 kcal/mol | 1.68 ± 0.15 kcal/mol | 1.77 ± 0.044 kcal/mol
SAGGSDRVLVPAGPSDYDVLVVVTPGPGDLVGVDALVIHPDGTPLAVRGVLDPTTGGISPVAVDPLSAGGSA [r2_402_TrMRF] | 0.243 ± 0.051 kcal/mol | 0.258 ± 0.038 kcal/mol | 0.28 ± 0.024 kcal/mol

Sequence | folding stability dG unfold [1] | folding stability dG unfold [2] | folding stability dG unfold [3]
SAGGSDTVVLDFTVTVDGKPYTVRVTLTRNPPTGEITVPVEIESANPEDAVPAREVADALVERLLSSAGGSA [r2_259_TrMRF] | 1.78 ± 0.075 kcal/mol | 1.56 ± 0.076 kcal/mol | 1.21 ± 0.028 kcal/mol
SAGGSEEFELEFRVEAASPEEAEALAEEIRKRLEDLGLDVEVEAETLEPGAVVVRPRVRVDPETGRLDSAGG [r13_697_TrMRF] | 1.29 ± 0.065 kcal/mol | 0.956 ± 0.16 kcal/mol | 0.126 ± 0.24 kcal/mol
SAGGSEEIKKLLASGQLDEVIALLKKKGYENVTVTPDPRKPVVTINVTKTDPKTGKKKTTTITIPTGLSAGG [r13_359_JUSTAS] | 4.03 ± 0.052 kcal/mol | 3.92 ± 0.086 kcal/mol | 3.62 ± 0.1 kcal/mol
SAGGSEIKIEIKYDEETGELVVEITVPESEEEVKKLVEELKKLGVEKVEIVRDKKTKEYRIRVVFKSAGGSA [r2_358_TrROS_Hall] | 4.98 ± 0.3 kcal/mol | 4.82 ± 0.57 kcal/mol | 3.28 ± 0.14 kcal/mol
SAGGSEPEPLRVSEITDIKESVLPNGTLKATVTLKLPEKDEEVEIEVEASSEEEIEEAIEEIVKLESAGGSA [r2_248_JUSTAS] | 0.0425 ± 0.35 kcal/mol | 0.482 ± 0.21 kcal/mol | 0.678 ± 0.089 kcal/mol
SAGGSEVETVKVKIKVKIDGKVYEVEAEVEVFTDEDGRKVLRITLPDGRVVEIPLEDADKIEEIEVSAGGSA [r2_297_TrROS_Hall] | 4 ± 0.11 kcal/mol | 4.25 ± 0.087 kcal/mol | 4.7 ± 0.19 kcal/mol
SAGGSFEPKREIEITLPNGREIEVWRYPGEGQMWVKLRFPNNGQKVEIPVKSPEDAEDSLKKFLKNSAGGSA [r2_70_TrROS] | -0.334 ± 0.35 kcal/mol | -0.169 ± 0.25 kcal/mol | -0.28 ± 0.29 kcal/mol
SAGGSFPIADVKEVKVEAYPETNTAKVPFTFPNGVTAVADAYLDPVTGRPVLVVRTPDGRLVVLPLSAGGSA [r2_490_TrMRF] | 1.15 ± 0.12 kcal/mol | 1.3 ± 0.094 kcal/mol | 1.43 ± 0.032 kcal/mol
SAGGSFSVDVPPDATVEVEEKVKRPDGSEVHLKITITRLPTSGKVLVTVEDNPPEKGSTTKEEIVPLESAGG [r13_934_JUSTAS] | 0.975 ± 0.068 kcal/mol | 0.658 ± 0.28 kcal/mol | -0.431 ± 0.38 kcal/mol
SAGGSFVKIKVKFDNKPIEIPIPDFVQKVEGDYQTIVFPEGDADSVLKKLKEASKKIEIVKVEVVKPSAGGS [r8_490_TrMRF] | 0.618 ± 0.13 kcal/mol | 0.354 ± 0.12 kcal/mol | -0.735 ± 0.24 kcal/mol
SAGGSGGLRVELPFLLPDGYRVTLTVNPETGEITEIRVEPIDAVPPEPEVLPVVGFDPRYGVPLVLSAGGSA [r2_78_TrMRF] | 0.344 ± 0.14 kcal/mol | 0.812 ± 0.12 kcal/mol | 1.12 ± 0.026 kcal/mol
SAGGSGIDFDIEFHNNHITIDIYMYDPNGQPIFEMTMTIPIPPVPPPPVPEVKVDDPEEAKEAKNQSAGGSA [r2_332_TrROS] | 2.35 ± 0.17 kcal/mol | 1.89 ± 0.21 kcal/mol | 0.751 ± 0.14 kcal/mol
SAGGSGKEFEVEKAVFIPLPDDRKLIIVKTKTSIQIVEYNGEEWKLVATYPYKDVPKNPRELLKKKSAGGSA [r2_133_TrMRF] | 1.13 ± 0.14 kcal/mol | 0.929 ± 0.22 kcal/mol | 0.454 ± 0.22 kcal/mol
SAGGSGMKLEKEIEVEVDPSGVGAEAVKEAVRAELEKEGYKVKVEIEVSEEEEKLYVKLHVEIYELSAGGSA [r2_172_JUSTAS] | 2.01 ± 0.14 kcal/mol | 1.57 ± 0.19 kcal/mol | 0.999 ± 0.064 kcal/mol
SAGGSGMSFSITEEVVIPTPGPRTLLLLKTEGDIIIVERDGERLRPVKTVPRKEVPEEPEKLIEELSAGGSA [r2_133_JUSTAS] | -0.243 ± 0.15 kcal/mol | -0.434 ± 0.12 kcal/mol | -1.07 ± 0.34 kcal/mol
